Where no end group is shown, it is not given here. [ ]: non-standard residue; d: D form. The star is where a group is joined. EDDnp = O=[N+]([O-])c1ccc(NCCN*)c([N+](=O)[O-])c1; 2Abz = Nc1ccccc1C(=O)O

This passage reports KM of the hydrolysis of the FRET peptide by the purified protease (Michaelis-Menten, pH 6.0, 45°C) results from PMC5220088.

For one assay, the target named is protease isolated from Eupenicillium javanicum (metalloprotease, 30 kDa) (Eupenicillium javanicum).
Regarding [2Abz]VLRSSKQ-EDDnp [Abz-VLRSSKQ-EDDnp], the KM of the hydrolysis of the FRET peptide by the purified protease (Michaelis-Menten, pH 6.0, 45°C) amounted to 0.01 mM.

On to [2Abz]KLQSSKQ-EDDnp [Abz-KLQSSKQ-EDDnp], for which the KM of the hydrolysis of the FRET peptide by the purified protease (Michaelis-Menten, pH 6.0, 45°C) turned out to be 0.004 mM.

With [2Abz]KFRSSKQ-EDDnp [Abz-KFRSSKQ-EDDnp], the KM of the hydrolysis of the FRET peptide by the purified protease (Michaelis-Menten, pH 6.0, 45°C) amounted to 0.012 mM.

The target is the same in the next assay. This is another data set of the same source.
In the case of [2Abz]KLRYSKQ-EDDnp [Abz-KLRYSKQ-EDDnp], the KM of the hydrolysis of the FRET peptide by the purified protease (Michaelis-Menten, pH 6.0, 45°C) was determined as 0.007 mM.

On to [2Abz]KLRSYKQ-EDDnp [Abz-KLRSYKQ-EDDnp], for which the KM of the hydrolysis of the FRET peptide by the purified protease (Michaelis-Menten, pH 6.0, 45°C) is 0.003 mM.

Consider [2Abz]KLRSIKQ-EDDnp [Abz-KLRSIKQ-EDDnp], for which the KM of the hydrolysis of the FRET peptide by the purified protease (Michaelis-Menten, pH 6.0, 45°C) turned out to be 0.003 mM.
